According to the supplement of paper PMC9170038:

tested on: MS2 coat protein; experiment: apparent KD of MS2 coat protein; higher = weaker reporter binding; settings: Eterna round: R107; input ligand: theophylline 2 mM
Procedure: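 RNA-MaP round R107: designed RNA switches with theophylline, tryptophan, arginine or FMN aptamers are transcribed on-chip within common flanks. They are titrated with SNAP-549-labelled MS2 coat protein in RNA-MaP buffer (100 mM Tris pH 7.5, 80 mM KCl, 4 mM MgCl2), without ligand or with the indicated ligand. Median apparent KD per design.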

Sequence | apparent KD of MS2 coat protein [nM]
CGGACAUGAGGAUCACCCAUGUACACUGAAGGAGCGUCGAGAACGACAGGUAGGUCGCAGGUUGAGGAUGGUGAUGCUCAGGUAG [Exclusion Arginine A GF 3] | 15.8
CCCUCCAGAACGGCCGCCACUAAAGGGUUGUGUGCGACUCCGGAACAUGAGGAUCACCCAUGUCUUAGGACCGGGUUCCCUUCUA [theeternabot_sameState_MS2_Trp_B_30] | 82.2
GUAGGUCUCAUGGGUGGACCUACACUGGAAGGAGCGAGCGAAAGCUCAGGUAGGUCGCCAGAAACAUGAGGAUCACCCAUGUAAU [(A)''-(M)'-(A)'-(Arg1)-(Arg2)-(M1)-(M2)_Design1] | 288
GAUUUAACAAAAGUUAGAUCAGUGGGUGAACGAGGACCGGUACGGCCGCCACUCGGACAUGAGGAUCACCCAUGUCCAUGUGAAA [AstrosExyTryA#20] | 18.6
UUCAGCUAGUCGGCCGCCACUACAUGAGGAUCACCCAUGUAGGUCCACACUGCUUCGGCAGUGAGUAGGACCGGGACUAGCUGAG | 10.5
UCGAAUGCGGCGGCCGCCACUCGCGGAUAACGAUAGCUUAACAUGAGGAUCACCCAUGUGUCAUGGAGGACCGGGCCCAUACGGU [kmkmullin] | 18.7
AAUUACAUGAGGAUCACCCAUGUGGCACAACGAGGACCGGUACGGCCGCCACUCGGUGCUGUACCACAAAACAUGCACGGGAAAG [theeternabot_sameState_MS2_Trp_A_6] | 39
AUGCAUAGCCGAAGGAGCGCAGUAGGAUGACAUGAGGAUCACCCAUGUGUGUGAUGUGGAUUGCAGGUAGGUCGCGGAGUGGUAU [Exclusion - Arginine B (Freestyle 5)] | 119
AGUUACUCGAACAUGGUUGACGAGUGGCAACGAGGACCGGUACGGCCGCCACUCGAAUAAACAUGAGGAUCACCCAUGUACAAAU [T''-M'-T'-T-MS2 - Design 10.b] | 160
CUAUUUAUAGCGGCCGCCACUUACUCAUGAGGUAACAACAUGAGGAUCACCCAUGUUUGAGGAUCAAGGACCGGGCUAUGGAUAG [AstrosSSTryB#12] | 31.5

same assay, conditions: Eterna round: R107; input ligand: tryptophan 2.4 mM

Sequence | apparent KD of MS2 coat protein [nM]
UAAUAAAUAAAUCCAAGGUGAAGGUCAGAUACCAGCCAGAUAACUGGCCCUUGGCAGCUGAAUAAACUUGAGGAUCACCCAGGUA [TheoAS 27 #OpenEnded #MS2Late #AlternativeMS2] | 55.6
ACCUACACGGAGACGUGUAGGAGUAAUGAUACCAGCAUGGAGACAUGCCCUUGGCAGCGUUACAUGAGGAUCACCCAUGUACGUU [ETHA #3] | 10.2
AGGACAUGAGGAUCACCCAUGUACACUGAAGGAGCGUCGAGAACGACAGGUAGGUCGCAGGCUAAGGAAGGUGAUGCUCAAGAAG [Exclusion Arginine A GF6] | 27.1
UGUAUGGACUGAAGGAGCGGGUUGAUAAUCUGAGGAUCACCCAGGUAAAAGGCGAAAGCCACCCAGGUAGGUCGCAGUCCAUACU | 36.4
UAAUAAAUAAAUCCAAGGUGUAGGUCAGAUACCAGCCAGAUAACUGGCCCUUGGCAGCUGAAUAAACCUGAGGAACACCCAGGUA [TheoAS 24 #OpenEnded #MS2Late #AlternativeMS2] | 27.3
GGAUAGGACACGGCCGCCACUAGCUAGGAUACUAGCAACAUUUGGGUACAUGAGGAUCACCCAUGUAGGACCGGGUGUCCUAUCG | 107
GGAUAGGACACGGCCGCCACUAGCUAGGAUACUAGCAACAUUUCCUCACAAGAGGAUCACCCUUGUAGGACCGGGUGUCCUAUCG | 139
GGCCCACAUGAGGAUCACCCAUGUGUGGAUACCAGCCUCAUUUAGGGCCCUUGGCAGCCAGAUAGUAACAAGUCCGAAACACAGA [theeternabot_sameState_MS2_Theo_A_24] | 144
AUCGUACCUGAUGAUACCAGCAUGUGCUCGUAACAUGAGGAUCACCCAUGUGAUCAGUGAUGCCCUUGGCAGCAUGAUCGGUGCA [Same State - Theophylline B (Freestyle 18)] | 167
AUACAUGAGGAUCACCCAUGUUAUAGUGAAGGAGCGACAUUUAUGUCAGGUAGGUCGCACUGUUGUUUAAUGAUUCUUGGAUCUU [#20 Exclusion - Arginine A] | 15.1
GCACCAGGUACGGAUACCAGCUGCCAGCGUUACAUGAGGAUCACCCAUGUGAUCUGAUAUAGCCCUUGGCAGCUGUACCUGGUGC [SSThB NP+V+V2 #3 +-Same Structure] | 49.6
UCGCUCUGGGUGAAUCCCAGAGAUGUGGAAGGAGCGGAGGAAACUCCAGGUAGGUCGCCAUCGAACAUGAGGAUCACCCAUGUAC [Same State - Arginine A (Freestyle 28)] | 46.4
ACUAGUUGUGCAGAUACCAGACAUGAGGAUCACCCAUGUUUGGGAUCUAAUGAUCAUCCUGUCCCUUGGCAGCUGUACAUCUAGA [Omei Theo B Exc v2] | 89.9
AAUAAUAAGGCGGCCGCCACUAAACAUGAGGAUCACCCAUGUCUCGAGCGCUUGCGUUUGGGAAGUAGGACCGGGCCAAUAAUAA [Exclusion - Tryptophan B (Freestyle 5)] | 14.2
AGAUAACAUGGUUUAAUAAGUUAAACUGAUACCAGUGUAUAUAAUCACCCUUGGCAGCAGCAACAUGAGGAUCACCCAUGUAAUA [JR_SSTheophyA_Sub013] | 19.6
GCUGCCAUACGAAGGAGCGCUGGUGUAAUGAGGCGAACAUGAGGAUCACCCAUGUGGCAGAAGCAGGUAGGUCGCGUAUGGCAGC [EAB #15] | 18.3
CGGACAUGAGGAUCACCCAUGUACACUGAAGGAGCGUCGAGAACGACAGGUAGGUCGCAGGUUGAGGAUGGUGAUGCUCAGGUAG [Exclusion Arginine A GF 3] | 14.3
GUAGGUCUCAUGGGUGGACCUACACUGGAAGGAGCGAGCGAAAGCUCAGGUAGGUCGCCAGAAACAUGAGGAUCACCCAUGUAAU [(A)''-(M)'-(A)'-(Arg1)-(Arg2)-(M1)-(M2)_Design1] | 320
UAUAUAUAUAUGGAUACCAGCAGAGAAAACGUUUAUCCUAACAUGAGGAUCACCCAUGUAUGCCCUUGGCAGCUGUGUAUAUAUA [8.H] | 19.2
AUGUCAUUGGUGUAGCUGUGAAAUGGCGAUACCAGCGUGGAAACACGCCCUUGGCAGCGCCAAAACAUGAGGAUCACCCAUGUUA [Pardubice] | 80
ACCCAUAAUUGGGCGGGUGGAUUGAGUGAUACCAGUCGUAUACAUGACCCUUGGCAGCACCGACAUGAGGAUCACCCAUGUGCCA [Same State Theophylline A GF23] | 46
UUCAGCUAGUCGGCCGCCACUACAUGAGGAUCACCCAUGUAGGUCCACACUGCUUCGGCAGUGAGUAGGACCGGGACUAGCUGAG | 15.4
UCGAAUGCGGCGGCCGCCACUCGCGGAUAACGAUAGCUUAACAUGAGGAUCACCCAUGUGUCAUGGAGGACCGGGCCCAUACGGU [kmkmullin] | 14.3
AAUUACAUGAGGAUCACCCAUGUGGCACAACGAGGACCGGUACGGCCGCCACUCGGUGCUGUACCACAAAACAUGCACGGGAAAG [theeternabot_sameState_MS2_Trp_A_6] | 30.9
AUGCAUAGCCGAAGGAGCGCAGUAGGAUGACAUGAGGAUCACCCAUGUGUGUGAUGUGGAUUGCAGGUAGGUCGCGGAGUGGUAU [Exclusion - Arginine B (Freestyle 5)] | 58
CUGCCAUGCAGAGAUACCAGUGAGCUCAAAACAUGAGGAUCACCCAUGUAAAUUGCCGAUCACCCUUGGCAGCUCUGCAUGGCAG [}=%#^] | 9.55
